{
  "source": "paper PMC1666580",
  "about": "(The Journal of Cell Biology, 2006)",
  "target": "T1, bacterially expressed human SDC1 ectodomain (hS1ED) (human, UniProt P18827 23-254)",
  "T1 sequence (looked up)": "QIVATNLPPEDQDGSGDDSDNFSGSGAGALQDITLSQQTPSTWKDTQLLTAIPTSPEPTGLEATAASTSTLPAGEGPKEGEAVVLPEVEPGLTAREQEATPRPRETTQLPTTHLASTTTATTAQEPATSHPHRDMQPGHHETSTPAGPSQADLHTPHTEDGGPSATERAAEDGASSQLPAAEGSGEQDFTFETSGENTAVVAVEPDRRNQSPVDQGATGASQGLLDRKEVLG",
  "assay": "pull-down",
  "data": [
    {"binder": "lacritin-intein fusion protein (lacritin coupled to chitin beads via chitin-binding intein) (ligand, human, UniProt Q9GZZ8 20-138, looked up) EDASSDSTGADPAQEAGTSKPNEEISGPAEPASPPETTTTAQETSAAAVQGTAKVTSSRQELNPLKSIVEKSILLTEQALAKAGKGMHGGVPGGKQFIENGSEFAQKLLKKFSLLKPWA", "values": [
      {"measurement": "binding result", "value": "binds"}
    ]}
  ]
}
